Measured values taken from PMC11895441.

Target: human complement Factor H (human) (UniProt P08603)
Assay: SPR; Biacore X100 Plus; human FH captured by immobilised anti-FH mAb (Q254) on CM5; refolded NspA as analyte, five 3.16-fold dilutions from 10 µM, single-cycle kinetics; 10 mM HEPES, 150 mM NaCl, 3 mM EDTA, 0.005% P-20, pH 7.4; 1:1 model; apparent KD

Sequence of UniProt P08603 (P08603 19-1231): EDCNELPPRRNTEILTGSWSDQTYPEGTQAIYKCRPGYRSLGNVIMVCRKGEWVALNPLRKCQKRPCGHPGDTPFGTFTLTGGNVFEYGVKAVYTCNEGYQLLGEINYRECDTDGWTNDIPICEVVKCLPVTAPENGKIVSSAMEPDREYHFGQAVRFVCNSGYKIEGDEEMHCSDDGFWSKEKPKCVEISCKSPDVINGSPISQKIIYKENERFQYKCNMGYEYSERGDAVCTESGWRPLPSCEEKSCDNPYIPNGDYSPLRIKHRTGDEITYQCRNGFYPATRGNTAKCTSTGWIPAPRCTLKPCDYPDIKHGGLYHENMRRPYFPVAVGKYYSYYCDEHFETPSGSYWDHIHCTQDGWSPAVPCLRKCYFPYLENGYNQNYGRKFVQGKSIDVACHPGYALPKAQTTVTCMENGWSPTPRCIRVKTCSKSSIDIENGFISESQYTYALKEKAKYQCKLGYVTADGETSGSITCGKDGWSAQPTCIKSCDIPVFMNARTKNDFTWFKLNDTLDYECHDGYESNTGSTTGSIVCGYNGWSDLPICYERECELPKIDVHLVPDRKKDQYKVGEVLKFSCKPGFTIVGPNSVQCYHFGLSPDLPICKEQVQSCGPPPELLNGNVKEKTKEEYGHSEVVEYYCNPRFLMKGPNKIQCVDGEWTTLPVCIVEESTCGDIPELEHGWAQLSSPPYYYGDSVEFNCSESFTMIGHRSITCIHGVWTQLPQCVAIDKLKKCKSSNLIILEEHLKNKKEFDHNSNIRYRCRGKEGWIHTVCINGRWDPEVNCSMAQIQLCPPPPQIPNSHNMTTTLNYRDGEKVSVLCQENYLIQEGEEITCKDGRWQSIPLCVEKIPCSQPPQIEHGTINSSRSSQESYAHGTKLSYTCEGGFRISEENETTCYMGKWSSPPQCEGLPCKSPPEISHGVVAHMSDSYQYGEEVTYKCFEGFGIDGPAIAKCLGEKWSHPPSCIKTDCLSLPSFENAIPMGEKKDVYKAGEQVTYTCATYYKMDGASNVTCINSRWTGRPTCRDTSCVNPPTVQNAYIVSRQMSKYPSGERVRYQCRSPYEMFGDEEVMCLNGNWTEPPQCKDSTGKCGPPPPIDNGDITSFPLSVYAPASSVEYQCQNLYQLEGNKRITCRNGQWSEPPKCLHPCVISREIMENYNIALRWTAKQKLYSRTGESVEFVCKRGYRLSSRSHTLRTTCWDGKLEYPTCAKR

purified, refolded NspA from N. meningitidis strain 8047, wild type, without signal sequence (natural protein)
Kd: 24.8 nM
koff: 0.000608 s⁻¹
kon: 25100 M⁻¹ s⁻¹
